Assay: soluble on expression in E. coli; label from the status in PepcDB or PDB records

Sequence | soluble on expression in E. coli
MHHLILGYGYCGYYLAQELLGHHQQVTVVSRQLKKELELSKLQHISHDLEYPFHWSEPDSIIYYLIPPPSQGTCDTFLQQFLNQSSLNAKKIIYFGSSGVYGNHQGAWVDELSACIIDSPRQQRRLDAEQQWLAYCQQHNKELSLLRIAGIYGPNRIPADAAKSKIPIIKPTEAPFTNHIFVKDLALIAYLLGQKQTTSAVYNVADGNPTHMGELQQTVANALGIESASYESFEQAWEKASPMKREFMRASKRLKIDLLKTALGEDIQFTSLYDAVKQSL | not soluble
MSCCKECGHTLENVEVEAYEKRQVFDIPPVNLIVTEHKSQIKTCPHCGRINKAVFPESVKYPVQYGPNILASAIYCKNHHFIPYERISEFFEDIMGIKICPATIIRAEKECFQNLECFENIIREKLMTSYVVHFDETGMKIEGKRHWLHVASNDKYTCYLPHSKRGAEAIDAMGILPEFKGVAVHDGWKPYNVYDCDHAL | not soluble
MGSSHHHHHHSSGLVPRGSMNNIYPLVICGPSGVGKGTLIKKLLNEFPNYFYFSVSCTTRKKREKEKEGVDYYFIDKTIFEDKLKNEDFLEYDNYANNFYGTLKSEYDKAKEQNKICLFEMNINGVKQLKKSTHIKNALYIFIKPPSTDVLLSRLLTRNTENQEQIQKRMEQLNIELHEANLLNFNLSIINDDLTLTYQQLKNYLLNSYIHLNNHTRN | soluble
MSSILTNNGAMVALQTLKSVNMNLGQTQNAISTGKNVATAKDNSAVWAISKVMESDVKGFKAIKDSLSLGESTVAVARNAAETVTDLLTQMKGKIVAAQEDNVDRNKINADVTALKDQISAVVGAAQFNGLNLVDGTAASASVLSSLDRDNAGNVTASSITVTGQNLSTGGYTAKAVFDATNTDGVSADGQDTFGFSLDANGGTDDNGQIEFEPQGTAAYAAGDSFTIRLGDTEVNYTVTAEDIASTSQADVIAVGMKAAIEASGANVTVDYNAANSGRLVITNDGTDSLQVSGQFSNANSGGLGALAAIDVSNSAGAAAALGSIETLIDTSIDAAAAFGSVQGRIETQKTFISNLTDSLKSGIGSMVDADMEEVSARLQALQVQQQLAVQSLSIANQAPQSILSLFR | not soluble
MAGDPMNEQSQAKSPDTLRAMVAGTLANFQHPTLKHNLTTLKALHHVAWMDDTLHVELVMPFVWNSAFEVLKEQCSADLLRITGAKAIDWKLSYNIATLKRVKNQPGINGVKNIIAVSSGKGGVGKSSTAVNLALALAAEGAKVGVLDADIYGPSIPTMLGAEDQRPTSPDGTHMAPIMSHGLATNSIGYLVTDDNAMVWRGPMASKALMQMLQETLWPDLDYLVLDMPPGTGDIQLTLAQNIPVTGAVVVTTPQDIALIDAKKGIVMFEKVEVPVLGIVENMSMHICSNCGHHEPIFGTGGAQKLAEKYHTQLLGQMPLHISLREDLDRGTPTVVSRPESEFTAIYRELADRVAAQLYWQGEVIPGEIAFRAVLEHHHHHH | soluble
MGSDKIHHHHHHMKKQFEMYFSLGTLIGYMHDNKLIATGGVFPFKDSFSTIGMLIVHPNFQGQGIGRTLLNHCLAHTHPKQPIALIATKAGEPLYTSCGFQTVTTIHRFEKQTTKTHITHTQQVKEKDIISLISLDQSTTGADRSLLYSLLLPRTSHSFKIERHNCIEAFSLCIQKGNILCINPLIAKREEDAIQLLQKICECWNGTVRLDVPHSQFSFRKLLQTENFQETLLSPLMIKNGSQLPGNRNMLFAMIDTALC | not soluble
MFLNSLDLPGQPENSRIVVAMSGGVDSSVVAGLLKKEGYDVIGITLQLYDHGAATHRVGACCAGQDIEDARCVAETLGIPHYVLDYEERFREAVIDPFAASYAHGETPVPCIACNQTVKFADLLATARELDADALATGHYIRSRSHGAHRALFRPLDSDRDQSYFLFATTQEQIDYLRFPLGDLPKARVREMATEMGFVVANKHDSQDICFVPQGKYSDIITKLRPEAVNPGVIVHVDGQVLGKHSGIVHYTVGQRRGIGVATGEALYVVYLDVENARVIVGPREMLETHKLFLRDVNWLGDERLDNFPPDGIEMAVKVRSTRPPHLARLHYQEGVFSVDFLECENSVAPGQACVFYDGNSDGARVLGGGFVTHSERAAETEMMLKRVLCNLETTSAVASEFKTKVSYT | not soluble
MGSDKIHHHHHHMGRTLGVGTVTPNLIGAHRDLIQRYGGHYPVISAHIWFDGTGLDPRYQYVTVLRDPVDRFISWLYFIDKDVELTEDTRELKVGAQLFLRSEGEETNQTFMRSASNPYVNNFSSVVMRCNASWQQKMVAALSVLTDYDLVGFQADLPQFIEQLAKLLHVINYVSLRPVNVTSSRPQRDGISEKMLHAIRKLTEWDLELYSEIQRMANRQAPTIGVSCNIQPFNREFGDWGFKARKSSNVYWLGSYLTHYLAKDLSTRNGSVAGRALVSNGAKGYLCHGPYLDLDPGHYCAVANGVWITRGVTCNADVCSGKGAVLHAEETLVDLGAKGTEWSLPVDFALDEETTSVEFRLMVPDEHQVQLNTVTIVNEKMVMTILGLEPDSHAANRGVEKQNSGSTLIFPVQMSSKIGLRVGTTLQTTGQEGFLCYGPYMTLSRGIYRVNLMGSIGPQGLAGAYADIVCDAGKKGIHNEPLAITPFNEYVDSTVGKPWMFFLEQDVSDLEIRLWVSNQTEINLCGIVLQQIEET | not soluble
MSLMTLYPVVVQERTTGEVLMLAYANEEALELTKKTGYAHFFSRERQKIWKKGETSGNTMRVVEIRRDCDDDAYLYIVDFPEDKVACHTGNRSCFFKVEHRFEETGSPTFWLELYRLVRKRKEEMPEGSYTVKLFKEGKGKIAKKFGEEAVEVITGYLQNDRENLVWEIADMMYHLTVLMADAGVTVQDVMRELEKRRKEGHHHHHH | soluble
MTSSNKILLVFLLFFCIQDVASENGLDVSALSGKSKKFFFDMTKQVMGVPSLKPENLAAQAFFRSFLDKYTKLDDKVKNDMTQHVPKATKLFDAAAKKYNIDPSSAFKMLSTFFETFKKGASSEMASKGLQMAGKLLGGKGSGGGGGLLGFLGTRR | not soluble
MRLQTVKHFLEPVLEPLIRKVVKEEVELALGKHLAGIKWICEKETHPLESRNLQLKFLNNLSLPVFTSARIEGDEGQAIRVGLIDPSTGQIFSSGPASSAKLEVFVVEGDFNSVSDWTDEDIRNNIVREREGKKPLLNGNVFAVLNDGIGVMDEISFTDNSSWTRSRKFRLGVRIVDQFDYVKIREAITESFVVRDHRGELYKKHHPPSLFDEVWRLEKIGKDGAFHRRLNLSNINTVKDFLTHFHLNSSKLRQVLGTGMSSKMWEITLDHARSCVLDSSVHVYQAPGFQKKTAVVFNVVAQVLGLLVDFQYIPAEKLSEIEKALILSVYIFDLAQAEVMVIDALSHLNEVISYDDEVSMMRNVLNAPASQGSVAGIDYSGLSLTSLDGYGFVSSLHNTAECSGKHSDDVDMEVTPHGLYEDYDNLWNCSHILGLEEPQSELQSALDDFMSQKNASVGGKAHSKRWTKLFSVSRWLSVFKYVKLGKI | soluble
MGEAYAEVFPDPDGISGHVKGVVDINAPPEKVWRIMTDCAAAKVMITTLAVCRIVEGDMARGWDIREHVTRRNLVFPGLRIVFRSDYEPYSRIKFKLVGGDLKVEQGEWKLQALDGGRRTRVLYDNRLAVDWPVPKALIREALRKDTPKVLMNLKRLCELEHHHHHH | not soluble
GSYNKPSETVIPESVDGLQENLDVVVSLAERHYYNCDFKMCYKLTSVVMEKDPFHASCLPVHIGTLVELNKANELFYLSHKLVDLYPSNPVSWFAVGCYYLMVGHKNEHARRYLSKATTLEKTYGPAWIAYGHSFAVESEHDQAMAAYFTAAQLMKGCHLPMLYIGLEYGLTNNSKLAERFFSQALSIAPEDPFVMHEVGVVAFQNGEWKTAEKWFLDALEKIKAIGNEVTVDKWEPLLNNLGHVCRKLKKYAEALDYHRQALVLIPQNASTYSAIGYIHSLMGNFENAVDYFHTALGLRRDDTFSVTMLGHCIEMYIGDSEAYIGADIK | soluble
AVAQQLRAESDFEQLPDDVAISANIADIEEKRGFTSHFVFVIEVKTKGGSKYLIYRRYRQFHALQSKLEERFGPDSKSSALACTLPTLPAKVYVGVKQEIAEMRIPALNAYMKSLLSLPVWVLMDEDVRIFFYQSPYDSEQVP | soluble
MIGGSLDAFIGSVHRMAAALDGTIELVCGAFSSNAARSIQTGEALHLPKERIYASYEEMIVQEAQLPADVRMQFVSIVTPNHLHAQPALLALKHGFHVLCEKPLAFSVAEAEQLGIQVKETGLLFGLTHTYTAYPMVKEARDLIAKGKLGTIRKIIVEYPQGWLSAPIESDGQKQAGWRTDPAQAGLSCCVGDIGTHAENIAEYITGLKITELSADVSSVVAGRKLDDDANILLRFDNGAKGVLIASQIANGEENELKIRVYGEHAGLEWLQSEPNTLIVKQNDQPTQLRRAGANHSYLSEHARLHCRIPAGHPEGYIEAMANIYRNFSKAVHSFEDQITHNPLLDYPTIEDGIRGMKFIETVIISGKENATWKQLLEHHHHHH | soluble
MNNKKTGVLLVNLGTPTAPTAAAVKQFLSEFLHDKRVVDMNRFIWCPLLHGVILPIRAPKVAKLYESVWMEEGSPLLVYSQRQVKALEARLSMPVALGMTYGEPRIKSGIESLEQQGCDEIIILPLYPQYSRTTTAAVFDQIAKQYKTTPVLPNFTMIHNYHDHPLYIKALANSVRQSWERNGKGDYVLCSYHGIPQRFVDNGDIYAAHCERTTELLAQELGLTSEQIGMSYQSRFGREEWLKPYTSETLKALAPKGIKSLDIISPAFSSDCLETLEELSEECKEIFMESGGQKYTFIPCLNDDELHIEMMADIVSSKIFNK | not soluble
MSLKSAKELLFLALGGSGEIGMNVNLYCCDGKWLMVDLGMTFADPYYPGIDLVFADLEFIEERLDDLVGIVLTHAHEDHIGAVPYFAQDLGVPLYATPFTAKLVHEKLLEAGIEKEVELNVIDHLDPFQLGPFGLRYIPLAHSIAEGNALLIDTPHGRIFHTGDWKLDDEPRIGTPATEEELTAIGDEGVLALVCDSTNVFNPNPSGSEGAVRAGLLEAVAAQKGRRVVVTTFASNVARLQTLGEVAEATGRRVCVAGRSLDRIIRVAQSCGYLKNFPETVHMDDAMDLPRGELLVLATGGQGEPRAALARIAADQHPVKLEKGDAVLFSTRQIPGNELAIGRVQNALVEKGVRIVTDRQSMIHVSGHPGRPELMALYEWLRPEILVPVHGEIRHMAEQAQLGLDEGIPKAIVQKNGDLIRLAPNGPKKLSEEGHHHHHH | soluble
MRIGVIMGGVSSEKQVSIMTGNEMIANLDKNKYEIVPITLNEKMDLIEKAKDIDFALLALHGKYGEDGTVQGTLESLGIPYSGSNMLSSGICMDKNISKKILRYEGIETPDWIELTKMEDLNFDELDKLGFPLVVKPNSGGSSVGVKIVYDKDELISMLETVFEWDSEVVIEKYIKGEEITCSIFDGKQLPIISIRHAAEFFDYNAKYDDASTIEEVIELPAELKERVNKASLACYKALKCSVYARVDMMVKDGIPYVMEVNTLPGMTQASLLPKSADAAGIHYSKLLDMIIETSLRVRKEEGF | not soluble
MTRIVVLGAGFAGLWAAIGAARKRDEIGAAGRDIEIRVVDRNPYHNIRVRNYEVDLSEVALPLGQLLDPIGVTHGLGEVEAIDPARREISLVTSDGEETLGYDRLVLAVGSEVTRPDIPGLADHAFDVDTYIAALRLEDHLVSLGRSVPSPGRSTVVVVGAGFTGIEVAAEMPDRLARAGITGSRCIILVDPNPTVGATIGAHARPVIETALSALDIETRLGARVASVEAAGVQLSSGEFIPAQTVIWCAGLRASRLAASLPGARDRLGRLLVDPFMRVADLPCVFAAGDVASSVVDGLHPTVMSCQFARPMGRFAGHNVVADLLGLPMLPLRIDWYVTVLDLGSWGALYTEGWDREVRTTGAAAKATKQTINRKRIYPPLNGSKDELFAAAAPTVQTPPPTYGARLEHHHHHH | soluble
